This note sets out measurements from article doi:10.1101/2025.08.11.669711 (2025).

One experiment addresses T1, UCH37.
T1 chain: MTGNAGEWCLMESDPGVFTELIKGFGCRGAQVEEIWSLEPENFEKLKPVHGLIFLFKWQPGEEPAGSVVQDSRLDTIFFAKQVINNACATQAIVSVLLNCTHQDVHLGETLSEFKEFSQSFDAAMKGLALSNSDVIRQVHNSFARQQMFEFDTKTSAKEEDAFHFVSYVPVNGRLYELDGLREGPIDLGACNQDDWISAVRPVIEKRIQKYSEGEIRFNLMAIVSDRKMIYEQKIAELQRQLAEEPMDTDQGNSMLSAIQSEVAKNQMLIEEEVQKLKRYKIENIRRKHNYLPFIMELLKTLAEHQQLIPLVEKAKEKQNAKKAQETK
Put plainly: SPR. Background: Surface plasmon resonance follows binding to a sensor surface in real time, without labels.

In the next experiment the target is T2, UCH37•RPN13^DEUBAD (UniProt Q16186 253-407).
T2 chain 1: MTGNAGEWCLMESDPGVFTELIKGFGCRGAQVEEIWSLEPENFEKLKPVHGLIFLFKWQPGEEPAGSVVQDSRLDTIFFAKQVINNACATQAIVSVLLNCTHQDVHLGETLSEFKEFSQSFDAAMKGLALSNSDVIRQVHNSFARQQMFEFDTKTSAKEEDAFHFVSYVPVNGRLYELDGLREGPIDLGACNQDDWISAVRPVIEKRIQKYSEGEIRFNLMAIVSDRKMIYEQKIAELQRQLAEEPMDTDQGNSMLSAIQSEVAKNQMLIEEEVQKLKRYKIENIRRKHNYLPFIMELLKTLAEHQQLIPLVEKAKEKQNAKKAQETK
T2 chain 2: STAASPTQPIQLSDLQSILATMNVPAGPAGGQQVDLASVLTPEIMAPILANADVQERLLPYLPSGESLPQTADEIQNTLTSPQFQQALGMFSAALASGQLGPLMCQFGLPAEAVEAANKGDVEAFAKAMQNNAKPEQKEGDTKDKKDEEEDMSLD
Briefly: MST.

B1: Nb-ncS1 (His-tagged) (VHH)
VHH: RVQLQESGGGLVQAGGSLRLSCAASGYIFRSYRMGWYRQAPGKERELVAAIGLGGNTYYADSVKGRFTISRDNAKNTVYQQMNSLKPEDTAVYYCAALYGKPPAFSPFPYWGQGTQVTVSS
The koff is the first-order rate constant of dissociation. A low value points to a long-lived complex. B1 yielded a dissociation rate constant (koff) in the experiment with UCH37 of 3.9e-05 s⁻¹.

B2: Nb-v1 (recombinant) (VHH)
VHH: QVQLQESGGGLVQAGGSLRLSCAASGYIFRSYRMGWYRQAPGKERELVAAIGLGGNTYYADSVKGRFTISRDNAKNTVYLQMNSLKPEDTAVYYCAALHGKPPAFSPFAYWGQGTQVTVSS
B2: the off-rate constant (koff) with UCH37 was 0.00013 s⁻¹.

B3: Nb-cS1 (His-tagged) (VHH)
VHH: QVQLQESGGGLVQAGGSLRLSCAASGYISRPRTMGWYRQAPGKEREFVAIISNGAITNYADSVKGRFTISRDNAKNTVYLQMNSLKPEDTAVYYCAAGRNIWHAYWGQGTQVTVSS
As a reminder, the Kd is the free concentration of one partner at which half of the binding sites on the other are occupied at equilibrium, for simple one-to-one binding. Molecule B3 had a dissociation constant Kd with UCH37•RPN13^DEUBAD of 199 nM.
